Measured values as given in patent publication US20040171105A1.

Target: GST fusion form of full-length human cIAP1 (human) (UniProt Q13490)
Assay: cell-based or functional assay

Chain of GST fusion form of full-length human cIAP1 (human) (Q13490 whole entry, the tested form may be a part): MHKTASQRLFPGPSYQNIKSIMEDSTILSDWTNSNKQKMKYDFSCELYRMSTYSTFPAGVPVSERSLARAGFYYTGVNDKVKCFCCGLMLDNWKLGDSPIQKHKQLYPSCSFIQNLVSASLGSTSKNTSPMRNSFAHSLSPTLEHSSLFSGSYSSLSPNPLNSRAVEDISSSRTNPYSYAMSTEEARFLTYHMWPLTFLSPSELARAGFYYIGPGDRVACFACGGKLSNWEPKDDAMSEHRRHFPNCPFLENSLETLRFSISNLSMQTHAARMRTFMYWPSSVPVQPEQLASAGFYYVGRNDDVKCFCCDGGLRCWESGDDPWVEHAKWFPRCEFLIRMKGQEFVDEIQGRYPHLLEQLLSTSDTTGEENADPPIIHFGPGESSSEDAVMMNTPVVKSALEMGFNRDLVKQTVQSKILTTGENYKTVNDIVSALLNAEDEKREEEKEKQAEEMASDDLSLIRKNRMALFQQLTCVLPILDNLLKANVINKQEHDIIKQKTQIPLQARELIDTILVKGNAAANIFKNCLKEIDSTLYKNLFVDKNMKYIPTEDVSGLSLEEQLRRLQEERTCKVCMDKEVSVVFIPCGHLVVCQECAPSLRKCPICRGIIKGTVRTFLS

- relief of cIAP1 inhibition of caspase activity in HeLa extracts: 75 nM
Substance: Omi SA (protease dead mutant Omi S306→Ala, C-terminal hexa-His tagged) (from UniProt O43464 134-458) (enzyme)
